# Measurements as given in the supplement of paper PMC10126150.
# ± gives the standard deviation of the averaged measurements.
# Tested on: ATP
# Test: switch fluorescence ratio, 500 uM ATP over buffer (Cy3 cluster intensity, sum of 5 cycles each) (fold (ratio)); higher = stronger signal-on switching upon ATP binding; sequences stand for … in TCGTCGGCAGCGTCAGATGTGTATAAGAGACAGTTTTTTTTTTTTTTTTTTTTTTTTT…TC
# Conditions: aptamer strand: ATP DNA aptamer (quencher-CACCTGGGGGAGTATTGCGGAGGAAGG + anchor), 100 nM annealed; ATP concentration: 500 uM
# In short: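 Per cluster, summed Cy3 intensity from the target cycles was divided by that from the buffer cycles to give the fluorescence ratio, then averaged per switch-domain sequence. Clusters outside 100-1000 RFU were excluded. The Cy3-labelled switching-strand clusters, on a modified Illumina MiSeq flow-cell, were annealed to 100 nM quencher-labelled ATP aptamer and imaged in selection buffer, then after 15 min with 500 uM ATP at 22 °C, for five cycles with NaOH stripping and re-annealing between them.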
# 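Note: ATP exposure 15 min at 22 °C before imaging.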
row,Sequence,switch fluorescence ratio
1,TGGGCAAGTT,1.04 ± 0.044
2,GCTGTTGGTG,1.002 ± 0.0037
3,TTGGGTGCTG,1.01 ± 0.032
4,CATCGGTGGG,0.97 ± 0.016
5,GGGGTGGTGG,0.9888 ± 0.007
6,CCGGGTCGGG,1.006 ± 0.0049
7,TAGCGTATGA,1.03 ± 0.014
8,TTATTGATTT,1.017 ± 0.0021
9,AATGGTTATC,0.9753 ± 0.0046
10,GGGGTGAGAA,1.02 ± 0.046
11,AGGACGGGGG,1.02 ± 0.033
12,AGATGAGAGT,1 ± 0.018
13,CAGCCCTATA,1.04 ± 0.047
14,GTGTTAGACT,0.9618 ± 0.0092
15,TAACATGGCC,1 ± 0.022
16,GACATTTTGG,1.03 ± 0.042
17,GATGTATATG,0.992 ± 0.018
18,ACAGGCTGGT,1.02 ± 0.028
19,GGAAGCCACG,1.06 ± 0.022
20,GTATATGGTC,1.02 ± 0.03
21,ATCGGAAAGC,1.07 ± 0.028
22,AGGTCTTATT,1.08 ± 0.094
23,GATGGCGGGG,0.981 ± 0.03

row,Sequence,switch fluorescence ratio
1,AGTATGGGGG,1.02 ± 0.015
2,ATATTGAAAT,1.01 ± 0.033
3,GAGTTTAATC,1 ± 0.018
4,TAAAGGTAGT,1 ± 0.032
5,TACGTCACCT,1.71 ± 0.048
6,TTTAGGGTAT,1.012 ± 0.0069
7,GTGATTGACT,1.03 ± 0.025
8,TAAGAGGGTT,1 ± 0.022
9,GCTCGGGGTA,1.02 ± 0.013
10,TTAACTTGTG,0.986 ± 0.031
11,TGTTTATTTC,1.03 ± 0.08
12,CGTAAAGGGG,0.983 ± 0.026
13,GGGGGCCACT,0.975 ± 0.041
14,TTTGGATTTA,1.03 ± 0.057
15,GAATAGGTTA,0.983 ± 0.026
16,TGACTATTAA,0.9845 ± 0.0022
17,GTAATTTGGT,0.9904 ± 0.0032
18,TTTCTTTTTT,1 ± 0.024
19,GGATTTAAAT,0.976 ± 0.042
20,AGCTGAAGTG,0.972 ± 0.018
21,GGCGCAACGG,1.05 ± 0.024
22,GGAACGTGGT,0.971 ± 0.017
23,ACTACTGCTG,1.05 ± 0.0044

row,Sequence,switch fluorescence ratio
1,ACTGTTAGGC,1.01 ± 0.056
2,TACTCTGAAA,2.38 ± 0.48
3,ATCTCTCATA,1.01 ± 0.038
4,AACCCGGGGT,0.99 ± 0.045
5,ACTAAGTCTG,1.02 ± 0.045
6,TATTGGGAAT,0.985 ± 0.01
7,CGGGGCACGC,0.896 ± 0.05
8,TTTTGGTTTG,1 ± 0.034
9,ACAGCTTTGA,0.985 ± 0.026
10,GGGGGAGGTC,0.989 ± 0.021
11,TTTTGTTAGA,1.03 ± 0.022
12,CTGTTTTTTT,0.981 ± 0.039
13,GGTTATAGGA,0.99 ± 0.036
14,AAGGCGAGGA,1.043 ± 0.0043
15,TTAATTTCAG,1.01 ± 0.023
16,AATGTAGGAC,1.018 ± 0.0026
17,GATGGTATTT,0.9794 ± 0.0062
18,TTTGGGGGTC,1.1 ± 0.24
19,CGTTGGGGAG,1.02 ± 0.03
20,CTTGACAATT,1 ± 0.023
21,GGTCTTGGCA,0.985 ± 0.052
22,TTTTTGTGA,0.995 ± 0.026
23,TGGGTTTTCT,1.08 ± 0.28

row,Sequence,switch fluorescence ratio
1,GCTCTTTGCT,0.988 ± 0.044
2,ATCCTTTCAG,0.995 ± 0.016
3,TAAGGGAAAT,1 ± 0.065
4,TGACTTTTTC,1.03 ± 0.016
5,TTAAAATGTT,1.0072 ± 0.00057
6,TGACAAAG,0.9776 ± 0.0029
7,TTTGCCGGGA,1.01 ± 0.019
8,TGCCGGGTCT,0.988 ± 0.04
9,CCGGGAGTGT,1.12 ± 0.013
10,GCTCTTCCCG,1.319 ± 0.011
11,CACAGCAGTC,2.62 ± 0.34
12,ACACTTAGCT,1.07 ± 0.025
13,TTGCGATATT,1.27 ± 0.36
14,TGGGGTACGT,1.02 ± 0.013
15,ACACGTGGGA,1.015 ± 0.0032
16,ATCATAATGT,0.983 ± 0.032
17,AGGGGATTAT,0.998 ± 0.038
18,GATTATTGGA,1.01 ± 0.026
19,AGGGGGGTTA,0.984 ± 0.04
20,TTCATGAATT,0.9956 ± 0.0056
21,CCAAGGAGAC,1.35 ± 0.052
22,CCCACAGGAC,1.73 ± 0.14
23,GGATATAGCC,0.994 ± 0.013

row,Sequence,switch fluorescence ratio
1,CGGTTATTGA,1.02 ± 0.022
2,CAAGATGCTC,1.43 ± 0.03
3,GGGGAATTTA,1 ± 0.024
4,CAGCTGGGAG,1.03 ± 0.011
5,CTCGATTTAT,0.9951 ± 0.0086
6,GAGTATTAAT,1.01 ± 0.02
7,TTTTCGGTTT,1 ± 0.051
8,TACAACTCTC,0.963 ± 0.077
9,GCGATTGAGG,0.9891 ± 0.005
10,AATTCAGCCT,1.06 ± 0.035
11,ATTCAAGGTT,0.973 ± 0.024
12,CGGGGTATCT,0.979 ± 0.018
13,TGGGGAAACC,2.35 ± 2.3
14,CTGTGGCGCT,1.01 ± 0.019
15,GGGGGTGACC,1.02 ± 0.025
16,CATCGGTGTG,0.958 ± 0.047
17,TTTATGCCGT,0.9505 ± 0.0022
18,GGTGGAATCA,0.9816 ± 0.0017
19,CCAGCTAGTT,1.05 ± 0.086
20,GGTGGTGACT,1.01 ± 0.036
21,ATTTTCTCCG,1.43 ± 0.63
22,CGTGGGATAT,1.0053 ± 0.00092
23,GATTTGGAGC,0.9911 ± 0.0076

row,Sequence,switch fluorescence ratio
1,TCTGGGCTTG,0.999 ± 0.015
2,TTTGTGTTGT,1.015 ± 0.0099
3,TTGCGTGCTT,1.01 ± 0.027
4,TTGGGTTCTT,0.9937 ± 0.0066
5,GGGTGGTTTG,1.006 ± 0.0097
6,GCCCGTCTGA,0.985 ± 0.075
7,TATCACGCAT,1.36 ± 0.018
8,TCTCGTAACT,1 ± 0.044
9,GAGCTATTCT,1.08 ± 0.0029
10,TCGATATTGG,1.02 ± 0.022
11,TAAGGGTTGC,1.03 ± 0.016
12,TCATTTCAGC,1.03 ± 0.011
13,GGATACGGTG,1.08 ± 0.061
14,GAGAGGTTGT,1 ± 0.024
15,TTAGTAATGT,1.06 ± 0.072
16,GAAGTTCAGG,1.03 ± 0.018
17,AAATTAGGCG,0.975 ± 0.021
18,CGATGGGTAA,1 ± 0.033
19,GCCACGGAGT,0.964 ± 0.015
20,ATACGTGGGA,1.01 ± 0.032
21,GGTGAACTTT,0.964 ± 0.015
22,CGGGTTCAGA,1.051 ± 0.0054
23,GTAGGACGTC,1.02 ± 0.011

row,Sequence,switch fluorescence ratio
1,AGACTTCCGG,0.969 ± 0.048
2,CTCGACGGGG,0.975 ± 0.035
3,GGCGTACAAA,0.985 ± 0.019
4,TTACGGAACT,1.164 ± 0.0041
5,GGACGGGGTC,1.01 ± 0.013
6,TAAAGAGTGT,1.01 ± 0.0042
7,GGGTCGTCAT,1.01 ± 0.015
8,GGCAGAAATG,0.994 ± 0.011
9,AAAAAGCTCG,0.985 ± 0.064
10,CTTCGGACGG,1.24 ± 0.036
11,TCTCAGCAAA,3.38 ± 0.53
12,GTGTTATATA,0.986 ± 0.013
13,TTTAGCTTCA,1.099 ± 0.0078
14,TGAATCTAGA,1.01 ± 0.019
15,TTGGTTGAGG,0.974 ± 0.02
16,CTGGAAAGGG,0.96 ± 0.019
17,GGGGCCATTT,0.99 ± 0.033
18,AGTGTTTTAA,0.994 ± 0.033
19,AGCTTCGTTC,1.014 ± 0.0052
